Two substances from US6585979 can be followed below.

Assay [1] deals with rgp120 from breakthrough virus clone C10.5 (herpes simplex virus type 1; HIV-1, breakthrough virus of vaccinee C10). Nature of the assay: capture ELISA, MAb at 2 ug/ml.
Assay [2] addresses rgp120 from breakthrough virus clone C8.6 (herpes simplex virus type 1; HIV-1, breakthrough virus of vaccinee C8). Nature of the assay: capture ELISA, MAb at 2 ug/ml.
Assay [3] concerns the target rgp120 from breakthrough virus clone C15.3 (herpes simplex virus type 1; HIV-1, breakthrough virus of vaccinee C15). The assay can be described thus: capture ELISA, MAb at 2 ug/ml.
In assay [4] the target is rgp120 from breakthrough virus clone C7.2 (herpes simplex virus type 1; HIV-1, breakthrough virus of vaccinee C7). Nature of the assay: capture ELISA, MAb at 2 ug/ml.
In assay [5] the target is rgp120 from breakthrough virus clone C15.2 (herpes simplex virus type 1; HIV-1, breakthrough virus of vaccinee C15). The assay can be described thus: capture ELISA, MAb at 2 ug/ml.
Assay [6] addresses rgp120 from breakthrough virus clone C17.3 (herpes simplex virus type 1; HIV-1, breakthrough virus of vaccinee C17). Nature of the assay: capture ELISA, MAb at 2 ug/ml.
The target in assay [7] is rgp120 from breakthrough virus clone C11.5 (herpes simplex virus type 1; HIV-1, breakthrough virus of vaccinee C11). The assay can be described thus: capture ELISA, MAb at 2 ug/ml.
Assay [8] has as its target rgp120 from breakthrough virus clone C17.1 (herpes simplex virus type 1; HIV-1, breakthrough virus of vaccinee C17). Nature of the assay: capture ELISA, MAb at 2 ug/ml.
In assay [9] the target is rgp120 from breakthrough virus clone C8.3 (herpes simplex virus type 1; HIV-1, breakthrough virus of vaccinee C8). Nature of the assay: capture ELISA, MAb at 2 ug/ml.
Assay [10] addresses rgp120 from breakthrough virus clone C10.7 (herpes simplex virus type 1; HIV-1, breakthrough virus of vaccinee C10). Nature of the assay: capture ELISA, MAb at 2 ug/ml.
Assay [11] has as its target rgp120 from breakthrough virus clone C6.1 (herpes simplex virus type 1; HIV-1, breakthrough virus of vaccinee C6). Nature of the assay: capture ELISA, MAb at 2 ug/ml.
Assay [12] deals with rgp120 from breakthrough virus clone C6.5 (herpes simplex virus type 1; HIV-1, breakthrough virus of vaccinee C6). The assay can be described thus: capture ELISA, MAb at 2 ug/ml.
The target in assay [13] is rgp120 from breakthrough virus clone C11.7 (herpes simplex virus type 1; HIV-1, breakthrough virus of vaccinee C11). Nature of the assay: capture ELISA, MAb at 2 ug/ml.
Assay [14] has as its target MN-rgp120 (herpes simplex virus type 1; HIV-1, MN strain). Nature of the assay: capture ELISA, MAb at 2 ug/ml (reference).
For assay [15] the target is unchanged. The assay can be described thus: capture ELISA (FIG. 5C).

MAb 15e (antibody): the relative reactivity (OD ratio to MN-rgp120) in [1] was 0.46; in assay [2] it was 0.29; in assay [3], 0.63; in assay [4] it was 0.71; in assay [5], 0.92; in assay [6], 0.33. The relative reactivity (OD ratio to MN-rgp120) in assay [7] was 0.17; in assay [8], 0.33; in assay [9], 0.38; in assay [10], 0.5; in assay [11] it was 0.17; in [12] it was 0.75. The figures for the relative reactivity (OD ratio to MN-rgp120) in assay [13] and in assay [14] were 0.17 and 1, respectively.
Take MAb 50.1 (antibody): the relative reactivity (OD ratio to MN-rgp120) worked out at 0.4 in assay [1]; 0.34 in assay [2]; 0.37 in [3]; 0.6 in assay [4]; 0.47 in assay [5]; 0.56 in assay [6]. In addition, the relative reactivity (OD ratio to MN-rgp120) came to 0 in [7]; 0.52 in assay [8]; 0.37 in assay [9]; 0.48 in assay [10]; 0.37 in assay [11]; 0.33 in [12]. The figures for the relative reactivity (OD ratio to MN-rgp120) in assay [13] and in [14] were 0 and 1, respectively. The substance further yielded a fold greater binding than to any of the breakthrough virus envelope proteins in [15] of 10 fold.
